Experimental findings from US20210030857A1 (NGM BIOPHARMACEUTICALS, published 2021) are described below.

For test [1], the target named is T1, human beta klotho mutant Y701A on HEK-293T cells (human, UniProt Q86Z14 1-1044).
T1 sequence: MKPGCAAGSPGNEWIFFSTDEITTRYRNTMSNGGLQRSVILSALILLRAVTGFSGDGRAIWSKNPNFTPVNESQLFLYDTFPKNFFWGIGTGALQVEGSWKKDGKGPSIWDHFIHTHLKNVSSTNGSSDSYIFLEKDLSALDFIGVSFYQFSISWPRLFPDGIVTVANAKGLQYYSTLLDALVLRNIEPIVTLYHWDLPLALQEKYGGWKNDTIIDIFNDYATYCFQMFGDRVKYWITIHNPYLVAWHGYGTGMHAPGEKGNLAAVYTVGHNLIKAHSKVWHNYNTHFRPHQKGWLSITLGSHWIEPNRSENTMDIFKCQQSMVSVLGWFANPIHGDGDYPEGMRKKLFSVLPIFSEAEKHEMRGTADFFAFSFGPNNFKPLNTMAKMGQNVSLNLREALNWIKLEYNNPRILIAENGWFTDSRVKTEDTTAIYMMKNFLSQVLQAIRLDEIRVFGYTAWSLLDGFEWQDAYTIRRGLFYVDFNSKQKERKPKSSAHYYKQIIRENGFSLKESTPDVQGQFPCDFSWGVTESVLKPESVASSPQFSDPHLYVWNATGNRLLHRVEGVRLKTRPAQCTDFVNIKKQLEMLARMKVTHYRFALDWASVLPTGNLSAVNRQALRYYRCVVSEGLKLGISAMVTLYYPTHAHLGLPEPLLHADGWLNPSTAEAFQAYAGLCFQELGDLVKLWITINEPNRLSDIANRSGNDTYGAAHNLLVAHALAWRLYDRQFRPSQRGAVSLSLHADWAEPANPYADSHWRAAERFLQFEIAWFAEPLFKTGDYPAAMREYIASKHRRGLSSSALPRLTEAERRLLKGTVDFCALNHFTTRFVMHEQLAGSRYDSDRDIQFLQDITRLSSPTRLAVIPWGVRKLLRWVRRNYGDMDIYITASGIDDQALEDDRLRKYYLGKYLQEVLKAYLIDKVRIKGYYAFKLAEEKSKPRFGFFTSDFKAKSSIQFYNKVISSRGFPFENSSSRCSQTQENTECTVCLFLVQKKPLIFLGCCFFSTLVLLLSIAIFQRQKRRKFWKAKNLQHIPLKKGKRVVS
The test is described as follows: shotgun alanine mutagenesis, FACS on HEK-293T cells. Here is the method:
(§1) In order to further identify specific binding residues within human beta klotho KL2 domain, shotgun mutagenesis was used to separately mutate individual residues of the KL2 domain of human beta klotho to an alanine (e.g., residues F508A-L1008A). […] For example, screening of the beta klotho mutant proteins was conducted at a concentration of 0.5 μg/ml for the humanized 5H23 antibody, 1.0 μg/ml for the Fab fragment, and 2.0 μg/ml for a positive control polyclonal anti-beta klotho antibodies.

For test [2], the target named is T2, human beta klotho mutant R703A on HEK-293T cells (human, UniProt Q86Z14 1-1044).
T2 sequence: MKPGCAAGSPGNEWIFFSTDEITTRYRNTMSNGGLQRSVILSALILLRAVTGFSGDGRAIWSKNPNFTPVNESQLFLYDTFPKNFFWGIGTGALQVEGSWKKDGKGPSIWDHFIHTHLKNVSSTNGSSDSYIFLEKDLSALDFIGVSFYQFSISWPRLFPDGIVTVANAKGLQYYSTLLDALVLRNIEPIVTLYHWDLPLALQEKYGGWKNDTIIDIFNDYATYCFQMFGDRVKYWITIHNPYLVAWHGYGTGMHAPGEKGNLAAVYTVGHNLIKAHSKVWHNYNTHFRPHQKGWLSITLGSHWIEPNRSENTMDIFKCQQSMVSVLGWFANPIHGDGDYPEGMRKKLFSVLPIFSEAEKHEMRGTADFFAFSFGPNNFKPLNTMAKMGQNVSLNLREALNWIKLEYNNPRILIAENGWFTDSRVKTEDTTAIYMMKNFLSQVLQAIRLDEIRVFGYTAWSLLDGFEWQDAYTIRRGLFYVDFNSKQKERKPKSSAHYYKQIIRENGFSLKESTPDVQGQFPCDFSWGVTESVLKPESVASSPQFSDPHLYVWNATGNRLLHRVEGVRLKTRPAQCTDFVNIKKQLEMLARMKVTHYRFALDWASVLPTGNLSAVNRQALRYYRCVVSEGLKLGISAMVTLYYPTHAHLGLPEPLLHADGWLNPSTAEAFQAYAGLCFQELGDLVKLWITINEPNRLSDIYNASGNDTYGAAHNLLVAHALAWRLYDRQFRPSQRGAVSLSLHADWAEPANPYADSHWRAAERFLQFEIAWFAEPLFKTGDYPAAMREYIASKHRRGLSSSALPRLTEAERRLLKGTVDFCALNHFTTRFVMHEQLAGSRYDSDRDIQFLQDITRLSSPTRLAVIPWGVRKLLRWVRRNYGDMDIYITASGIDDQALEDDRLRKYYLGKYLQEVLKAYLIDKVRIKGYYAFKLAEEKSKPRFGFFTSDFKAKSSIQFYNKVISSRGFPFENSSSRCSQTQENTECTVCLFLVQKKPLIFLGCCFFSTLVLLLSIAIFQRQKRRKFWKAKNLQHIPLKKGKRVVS
The description is as above. The protocol:
as §1

B1: humanized 5H23 antibody (VH SEQ ID NO: 271 and VL SEQ ID NO: 276) (antibody, V domains shown)
VH: QVQLQQSGAEVKKPGASVKVSCKASGYTFTSYDINWVRQAPGQGLEWIGWIYPGDGSTKYNEKFKGKATITRDTSASTAYMELSSLRSEDTAVYFCARSDYYGSRSFAYWGQGTLVTVSS
VL: DIVMTQSPDSLAVSLGERATINCRASKSVSTSGYVYMHWYQQKPGQPPKLLIYLASYLESGVPDRFSGSGSGTDFTLTISSVQAEDVAVYYCQHSRDLTFPFGGGTKLEIK
notes: also called h5H23; h5H23 (Prep 1)
For the molecule B1, the binding result in test [1] and in test [2] was “no binding (tested: 0.5 µg/ml)” throughout.
